pyrene = pyrene (fluorescent label)

This experiment has as its target fibrillar amyloid target protein (UniProt P05067). As to the kind of experiment: pyrene excimer:monomer fluorescence ratio of di-pyrene probe in the presence of fibrillar amyloid target protein.

pyrene-KLVFFAEDVGSNKHAIIELMK(pyrene)-NH2 [Peptide 22 (SEQ ID NO:2)]: the maximal signal gain relative to the reference peptide (SEQ ID NO:1) is 2.6 fold.

The values above are taken from patent US20100233095A1.
